According to patent US20190212340A1, “AN ELISA-LIKE ASSAY FOR QUANTIFYING ENZYMATIC ACTIVITIES OF MONO-ADP-RIBOSYLTRANSFERASES” (University of Southern California, priority 2016, published 2019):

How the values were obtained:
[1] = substrate: NC(=O)c1ccc[n+]([C@@H]2O[C@H](COP(=O)([O-])OP(=O)(O)OC[C@H]3O[C@@H](n4cnc5c(N)ncnc54)C(O)[C@H]3O)[C@H](O)C2O)c1; assay: Enzyme kinetics of PARP15-catalyzed automodification by MLISA (Experiment No. 2); type: biochemical, human; conditions: other: 500 nM PARP15, NAD+ 5-400 μM, Michaelis-Menten fit; pH 7.4
Method: To characterize enzyme kinetics, 96-well plates were coated with reactions in triplicates that consist of 500 nM of PARP15 and NAD^+ at varied concentrations (5, 10, 20, 30, 40, 200, and 400 μM) in reaction buffer (50 mM Tris-HCl, pH 7.4, 2 mM DTT). The reactions were quenched with 20% ice-cold TCA at different time points (0, 2.5, 5, 7.5, 10, 12.5, 15, and 20 minutes). The plates were further incubated for up to 2 hours under room temperature followed by five washes with 200 μL of PBST. Kinetic parameters were calculated by fitting data to Michaelis-Menten model implemented in GraphPad Prism.
To determine reaction rates, standard curves were generated for each reaction plate. […] Upon additions of Coomassie Plus (Bradford) assay reagents to clear 96-well pureGrade plates, the absorbance at 595 nm of each well was measured by Synergy H1 Hybrid Multi-Mode Microplate Reader. The concentrations of automodified PARP15 were calculated through fitting to linear regression curves generated with BSA standards. Standard curves were constructed through linear correlation of the determined concentrations of automodified PARP15 with the fluorescence intensities of the corresponding wells measured on 96-well ELISA plates.

[2] = substrate: NC(=O)c1ccc[n+]([C@@H]2O[C@H](COP(=O)([O-])OP(=O)(O)OC[C@H]3O[C@@H](n4cnc5c(N)ncnc54)C(O)[C@H]3O)[C@H](O)C2O)c1; assay: Km determination of PARP15 automodification by M2-based ELISA (Experiment No. 1); type: biochemical, human; conditions: other: 500 nM PARP15, NAD+ 5 μM to 4 mM; pH 7.4
Method: 96-well ELISA plates were coated with reactions in triplicates consisting of 500 nM PARP15 with various concentrations of NAD^+ (5, 10, 20, 30, 40, 200, 400, 1000, 2000 and 4000 μM) in Reaction Buffer (50 mM Tris-HCl, pH 7.4, 2 mM dTT). The reactions were quenched with 20% ice-cold TCA at various time points (0 to 20 minutes). The plates were further incubated for up to 2 hour under room temperature followed by five washes of PBST.
PARP15 automodification assay was performed by adding 50 μg/ml PARP15 to Reaction Buffer with 500 μM NAD^+ in a microcentrifuge tube for 2 hours. Automodified PARP15 was diluted and plated simultaneously on both the ELISA plate and clear pureGrade plate according to manufacturer's protocol. Upon addition of Coomassie Plus (Bradford) Assay Reagent the absorbance of each well was measured on a Synergy H1 Hybrid Multi-Mode Microplate Reader (BioTek, VT). The concentrations of automodified PARP15 in each well were determined through linear regression curve using BSA standards. A standard curve was constructed through a linear correlation of automodified PARP15 concentrations and the corresponding fluorescence signals.

B1: PARP15 (Homo sapiens) (protein)
chain: MGHHHHHHIEGRNLPEHWTDMNHQLFCMVQLEPGQSEYNTIKDKFTRTCSSYAIEKIERIQNAFLWQSYQVKKRQMDIKNDHKNNERLLFHGTDADSVPYVNQHGFNRSCAGKNAVSYGKGTYFAVDASYSAKDTYSKPDSNGRKHMYVVRVLTGVFTKGRAGLVTPPPKNPHNPTDLFDSVTNNTRSPKLFVVFFDNQAYPEYLITFTA
notes: The catalytic domains of PARP15 (residue 481-678); His6 (N); Factor Xa cleavage site (IEGR) (N); made in house; host or cells: E. coli BL21 (DE3)
**Q.** With B1 as the protein, how does the Km [1] read?
**A.** The Km was 4.5 ± 2.9 µM.

**Q.** What about the kcat [1] of the same protein?
**A.** The kcat was 0.000183 ± 1.7e-05 s⁻¹.

**Q.** What about the Km [2] of the same protein?
**A.** Its Km is 7.148 ± 3.138 µM.
